{"source": "paper PMC5708776", "about": "“Crystal structure of a tripartite complex between C3dg, C-terminal domains of factor H and OspE of Borrelia burgdorferi” (PLoS ONE, 2017)", "biological_target": "T1, C3dg (residues 955 to 1303 of complement C3), C1010A (UniProt P01024 955-1303, C1010A)", "T1 construct": "complement C3, C3dg fragment, residues 955-1303; C1010A prevents thioester formation; a second change (printed A1153E) was made to reverse a mutation of the original gene, so that the natural residue stands at 1153; The His6 tag was moved from the N-terminus to the C-terminus (TEV-His6) and removed with TEV protease; residues of the TEV site probably remain at the C-terminus; also called C3dg …", "T1 sequence (P01024 955-1303 C1010A)": "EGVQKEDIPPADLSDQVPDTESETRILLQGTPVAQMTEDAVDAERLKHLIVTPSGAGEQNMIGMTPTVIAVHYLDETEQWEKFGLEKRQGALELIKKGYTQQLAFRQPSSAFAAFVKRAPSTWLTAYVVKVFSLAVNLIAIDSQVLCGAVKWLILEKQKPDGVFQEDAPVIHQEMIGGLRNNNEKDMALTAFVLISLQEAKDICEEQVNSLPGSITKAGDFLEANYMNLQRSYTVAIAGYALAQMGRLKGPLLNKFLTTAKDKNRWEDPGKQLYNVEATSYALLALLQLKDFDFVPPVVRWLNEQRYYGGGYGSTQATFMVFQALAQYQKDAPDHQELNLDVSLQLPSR", "experiment": "crystal structure; three purified proteins mixed at a 1:1:1 molar ratio before crystallisation at 20 °C (PEG 3350, Hepes pH 7.5 or Tris pH 8.5); 3.18 Å; three heterotrimers in the asymmetric unit", "settings": "both partners purified", "data": [{"binder": "C-terminal domains 19-20 of human factor H (FH19-20), wild type (domain or fragment, human complement factor H, domains (SCRs) 19-20; also called C-terminus of human factor H) KDSTGKCGPPPPIDNGDITSFPLSVYAPASSVEYQCQNLYQLEGNKRITCRNGQWSEPPKCLHPCVISREIMENYNIALRWTAKQKLYSRTGESVEFVCKRGYRLSSRSHTLRTTCWDGKLEYPTCAKR", "values": [{"measurement": "binding result", "value": "binds"}]}]}
